Here are results for seven molecules from patent US20030199423A1.

For experiment [1], the target named is CD18-independent counterreceptor for ICAM-R on Jurkat cells. Kind of experiment: inhibition of Jurkat cell adhesion to coated soluble ICAM-R, peptide 1-2 mg/ml.
Experiment [2] addresses T1, soluble human ICAM-R (human), P32942.
T1 chain: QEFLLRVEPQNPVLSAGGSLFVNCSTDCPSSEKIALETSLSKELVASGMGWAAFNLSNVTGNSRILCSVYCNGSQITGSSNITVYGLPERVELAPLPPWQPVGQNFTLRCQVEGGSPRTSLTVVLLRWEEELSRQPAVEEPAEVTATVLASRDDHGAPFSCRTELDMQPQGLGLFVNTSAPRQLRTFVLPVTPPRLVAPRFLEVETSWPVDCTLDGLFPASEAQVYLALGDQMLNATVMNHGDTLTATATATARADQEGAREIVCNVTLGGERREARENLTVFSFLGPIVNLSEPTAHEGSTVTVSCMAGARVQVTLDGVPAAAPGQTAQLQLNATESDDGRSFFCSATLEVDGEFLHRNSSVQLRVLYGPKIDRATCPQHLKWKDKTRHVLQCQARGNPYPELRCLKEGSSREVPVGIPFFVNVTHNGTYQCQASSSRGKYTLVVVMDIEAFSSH
In words: blocking of biotinylated murine ICR-8.1 binding to ICAM-R; competitor murine ICR-8.1.

The target is the same in experiment [3]. In words: ELISA on coated baculovirus soluble ICAM-R. (In general: ELISA stands for enzyme-linked immunosorbent assay.)

As to EKIALET [ICAM-R peptide, residues 32-38], the % Inhibition in experiment [1] is 10%.

Turning to DGQST [ICAM-1 peptide (DGQST), residues 70-74], the % Inhibition in experiment [1] came out at 9%.

B1: recombinant ICR-8.1 antibody miHuVHI/MuVK (antibody)
chain 1: QIQLVQSGAEVKKPGASVKVSCKASGYTFTDCIILWVRQAPGQGLEWMGKINPYFGTTTYAQKFQGRVTITADTSTSTAYMELSSLRSEDTAVYYCARKEAYPDAMDYWGQGTLVTVSS
chain 2: DAVMTQTPLSLPVSLGDQASISCRSSQSLVHSNGDTYLHWYLQKPGQSPQLLIYKVSNRFSGVPDRFSGSGSGTDFTLKLSRVEAEDLGVYFCSQSTHVPYTFGGGTKLEIK
modifications: not checked
B1 came in with a fold less well competing than murine ICR-8.1 in experiment [2] of 2 fold. For the same molecule, in experiment [3], the fold improvement in binding over the other recombinant ICR-8.1 antibodies worked out at 2 fold.

On to NGSQI [ICAM-R domain 1 peptide (NGSQI), residues 72-76], for which, in experiment [1], the % Inhibition came out at 17%.

In experiment [1], GDQML [ICAM-R domain 3 peptide (GDQML), residues 230-234] came in with a % Inhibition of 36%.

Molecule GDQRL [ICAM-1 peptide (GDQRL), residues 228-232] registered a % Inhibition in experiment [1] of 22%.

In experiment [1], GERREA [ICAM-R peptide, residues 271-276] had a % Inhibition of 11%.

The % Inhibition is the relative decrease from the control value, in per cent. Low readings indicate a response near the control, high ones a response far below the control.
